# In patent US20230212304A1 (BIOSION, published 2023):
# Like-named read-outs stand apart in the source and are kept apart here.
# T1: recombinant human CTLA4 protein with human IgG1 Fc tag at the C-terminus (Acro biosystems, Cat#CT4-H5255) (human, UniProt P16410 37-162)
# T1 construct: bought protein; also called human CTLA4-Fc; CTLA4-Fc; not shown: human IgG1 Fc tag at the C-terminus
# T1 sequence (looked up): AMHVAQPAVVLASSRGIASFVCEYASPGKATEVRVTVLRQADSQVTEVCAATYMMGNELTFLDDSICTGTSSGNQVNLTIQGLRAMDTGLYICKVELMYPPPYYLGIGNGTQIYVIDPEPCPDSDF
# T2: recombinant human CTLA4-his protein (Acro biosystems, Cat#CT4-H5229) (human, UniProt P16410 37-162)
# T2 construct: bought recombinant protein; not shown: his tag
# T2 sequence (looked up): T1 sequence (looked up)
# T3: cynomolgus monkey CTLA4-his protein (Acro biosystems, Cat#CT4-C5227) (cynomolgus monkey, UniProt G7PL88 36-161)
# T3 construct: bought recombinant protein; also called Cynomolgus CTLA4-his; not shown: his tag
# T3 sequence: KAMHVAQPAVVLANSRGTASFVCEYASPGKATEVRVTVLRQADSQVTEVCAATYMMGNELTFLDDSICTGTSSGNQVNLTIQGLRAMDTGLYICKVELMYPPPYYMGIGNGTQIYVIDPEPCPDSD
# B1: mouse anti-CTLA4 monoclonal antibody C1D1 (antibody, V domains shown)
# VH: EVKLDETGGGLVQPGRPLKLSCVASGFTFSDNWMNWVRQSPEKGLEWVAQIRNKPYNYETYYSDSVKGRFTISRDDSKSSVYLQMNNLRVEDMGIYYCTGGMDYWGQGTSVTVSS
# VL: DIQMTQSPASLSASVGETVTITCGASEIIYGALNWYQQKQGKSPQLLIYGATNLADGMSSRFSGSGSGRQYSLKISSLHPDDAATYYCQKILSPPPWTFGGGTKLEIK
# notes: mouse mAb purified from hybridoma supernatant
# B2: chimeric C1D1 anti-CTLA4 antibody (antibody, human IgG4 S228P, kappa, V domains shown)
# VH: B1 VH
# VL: DIQMTQSPASLSASVGETVTITCGASEIIYGALNWYQQKQGKSPQLLIYGATNLADGMSSRFSGSGSGRQYSLKISSLHPDDAATYYCQKILSPPPWTFGGGTKLEIKR
# notes: mouse variable domains on human IgG4/kappa, made in 293F cells
# B3: huC1D1-V8 (antibody, human IgG4 S228P, kappa, V domains shown)
# VH: EVQLVESGGGLVQPGRSLRLSCTASGFTFSDNWMNWVRQAPGKGLEWVGQIRNKPYNYETYYSDSVKGRFTISRDDSKSIAYLQMNSLKTEDTAVYYCTGGMDYWGQGTTVTVSS
# VL: DIQMTQSPSSLSASVGDRVTITCGASEIIYGALNWYQQKPGKSPKLLIYGATNLADGVPSRFSGSGSGTDFTLTISSLQPEDVATYYCQKILSPPPWTFGGGTKVEIKR
# notes: humanized IgG4/kappa; cell supernatant on Octet, purified antibody in Biacore, ELISA, FACS and the functional assay; also called hu CTLA4 C1D1-V8
# B4: mouse anti-CTLA4 monoclonal antibody D1B6 (antibody, V domains shown)
# VH: EVQLQQSGPELVKPGASVKLSCKASGNTFTTYVLNWVKQKPGQGLEWIGYFNPYNDGIKYNEKFKGKATLTSDKSSNTAYMELSSLTSEDSAVYYCARFEGGGYAMDYWGQGTSVTVSS
# VL: DIVLTQSPASLAVSLGQRATISCRASQSVGTSRNTYIHWYQQKLGQPPKLLIKYASDLESGVPARFSGSGSGTDFTLNIHPVEEEDTATYYCQHSWEIPYTFGGGTKLEIK
# notes: as for B1
# What was measured:
# [1] = target: T1, recombinant human CTLA4 protein with …; test: capture ELISA: antibody captured on coated plate (anti-human IgG Fc for the chimeric antibodies), biotin human CTLA4-Fc, streptavidin-HRP, OD(450-630)
# Procedure: (§1) Plates were washed once with wash buffer (PBS+0.05% v/v Tween-20, PBST) and then blocked with 200 µl/well blocking buffer (PBST with 5% w/v non-fatty milk) for 2 hours at 37° C. […] After a final wash, plates were incubated with 100 µl/well substrate TMB (Innoreagents, Cat#TMB-S-002). The reaction was stopped in 15 minutes at room temperature with 50 µl/well 1M H₂SO₄, and the absorbance of the each well was read on a microplate reader using dual wavelength mode with 450 nm for TMB and 630 nm as the reference wavelength, then the OD (450-630) values were plotted against antibody concentration. Data was analyzed using Graphpad Prism software and EC₅₀ values were reported.
# For the capture ELISA, AffiniPure Goat Anti-Human IgG, Fcy fragment specific (Jackson Immuno Research, Cat#109-005-008) was used instead of AffiniPure Goat Anti-Mouse IgG, F(ab′)₂ fragment specific, 100 µl/well.
# [2] = target: T1, recombinant human CTLA4 protein with …; test: competitive ELISA: antibody pre-mixed with biotin human CTLA4-Fc (65 ng/ml), added to plate coated with the benchmark; competitor: coated Yervoy
# Procedure: (§2) Plates were washed once with wash buffer, blocked with 200 µl PBST with 5% w/v non-fatty milk, incubated for 2 hours at 37° C., and washed 4 times.
# (§3) After incubation at 37° C. for 40 minutes, plates were washed 4 times again using wash buffer. Then the plates were added and incubated with 100 µl/well streptavidin conjugated HRP (1:10000 dilution in PBST, Jackson Immuno Research, Cat#016-030-084, 100 µl/well) for 40 minutes at 37° C. Plates were finally washed using wash buffer. Finally, TMB was added and the reaction was stopped using 1M H₂SO₄, and the absorbance of the each well was read on a microplate reader using dual wavelength mode with 450 nm for TMB and 630 nm as the reference wavelength, then the OD (450-630) values were plotted against antibody concentration. Data was analyzed using Graphpad Prism software and IC₅₀ values were reported.
# [3] = target: T1, recombinant human CTLA4 protein with …; test: competitive ELISA: antibody pre-mixed with biotin human CTLA4-Fc, added to plate coated with the benchmark; competitor: coated Yervoy
# Procedure: as §2, §3
# (§4) In the capture ELISA assay, the 96-well micro plates were coated with 2 µg/ml goat anti-human IgG (AffiniPure Goat Anti-Human IgG, F(ab′)₂ fragment specific, Jackson Immunoresearch, Cat#109-005-097) instead of the goat anti-mouse IgG F(ab′)₂ fragment, 100 µl/well.
# [4] = target: T1, recombinant human CTLA4 protein with …; test: capture ELISA (plate coated with goat anti-human IgG F(ab')2 per paragraph 181), biotin human CTLA4-Fc, streptavidin-HRP, OD(450-630)
# Procedure: as §1, §4
# [5] = target: T1, recombinant human CTLA4 protein with …; test: cell based blocking FACS: antibody pre-mixed with human CTLA4-Fc (1 ug/mL), added to Daudi cells; blocked ligands: cell surface CD80/CD86
# Procedure: (§5) Daudi cells were harvested from cell culture flasks at the log phase, washed twice and re-suspended in PBS containing 2% v/v Fetal Bovine Serum (FACS buffer). […] Cells were washed twice and re-suspended in FACS buffer. Fluorescence was measured using a Becton Dickinson FACS Canto II-HTS equipment. Data was analyzed using Graphpad Prism software and IC₅₀ values were reported.
# [6] = target: T1, recombinant human CTLA4 protein with …; test: capture ELISA: antibody captured on anti-mouse IgG F(ab')2 coated plate, biotin human CTLA4-Fc 26 ng/ml, streptavidin-HRP, OD(450-630)
# Procedure: as §1
# [7] = target: T2, recombinant human CTLA4-his protein …; test: SPR, Biacore T200; antibody captured, CTLA4-his as analyte
# Procedure: (§6) Un-reacted moieties on the biosensor surface were blocked with ethanolamine. […] The antigen-antibody association kinetics was followed for 2 minutes and the dissociation kinetics was followed for 10 minutes. The association and dissociation curves were fit to a 1:1 Langmuir binding model using BIAcore evaluation software.
# [8] = target: T3, cynomolgus monkey CTLA4-his protein …; test: as above
# Procedure: as §6
# [9] = target: T1, recombinant human CTLA4 protein with …; test: cell-based or functional assay
# [10] = target: T1, recombinant human CTLA4 protein with …; test: cell-based or functional assay; remark: listed apart in the source
# [11] = target: T1, recombinant human CTLA4 protein with …; test: cell based blocking FACS: antibody pre-mixed with human CTLA4-Fc, added to Daudi cells; blocked ligands: cell surface CD80/CD86
# Procedure: as §5, §4
# [12] = target: T1, recombinant human CTLA4 protein with …; test: as above; remark: listed apart in the source
# [13] = target: T2, recombinant human CTLA4-his protein …; test: BLI, Octet; antibody at 5 ug/ml on AHC sensor, CTLA4-his as analyte
# Procedure: (§7) Briefly, AHC biosensors (anti-human IgG Fc capture, from ForteBio) were presoaked with 10 mM glycine (pH 1.5) for 3 seconds, and then dipped in a well with running buffer (0.5% w/v BSA in PBST) for 3 seconds, the soaking and dipping steps were repeated for three times. […] A new baseline was run for 180 seconds in another well with running buffer. […] Finally, sensors were presoaked with 10 mM glycine (pH 1.5) for 3 seconds, and then were dipped in a well with running buffer for 3 seconds, the soaking and dipping steps repeated for three times. The association and dissociation curves were fit to a 1:1 Langmuir binding model using ForteBio Data Analysis 8.1.
# [14] = target: T2, recombinant human CTLA4-his protein …; test: SPR, Biacore; antibody captured on anti-human IgG CM5 chip, CTLA4-his as analyte
# Procedure: as §6, with “software. […]” for “software.”
# [15] = target: T3, cynomolgus monkey CTLA4-his protein …; test: as above
# Procedure: as §6, with “software. […]” for “software.”
# [16] = target: T2, recombinant human CTLA4-his protein …; test: BLI, Octet RED96; antibody on AHC sensor, CTLA4-his as analyte
# Procedure: as §7
# [17] = target: T2, recombinant human CTLA4-his protein …; test: BLI, Octet; antibody from cell supernatant on AHC sensor, CTLA4-his as analyte
# Procedure: as §7
Binder,EC50 [1] [nM],IC50 [2] [nM],IC50 [3] [nM],EC50 [4] [nM],IC50 [5] [nM],EC50 [6] [nM],Kd [7] [nM],koff [7] [s⁻¹],kon [7] [M⁻¹ s⁻¹],Kd [8] [nM],koff [8] [s⁻¹],kon [8] [M⁻¹ s⁻¹],"EC50 of IL-2 release (GS-J1 T cells + GS-C1/CD80 cells + human CTLA4-Fc, IL-2 HTRF) [9] [nM]","EC50 of IL-2 release (GS-J1 T cells + GS-C1/CD80 cells + human CTLA4-Fc, IL-2 HTRF) [10] [nM]",IC50 [11] [nM],IC50 [12] [nM],Kd [14] [nM],koff [14] [s⁻¹],kon [14] [M⁻¹ s⁻¹],Kd [15] [nM],also measured
B1,0.445,0.338,0.8,0.121,6.22,0.0479,0.399,0.0001,251000,0.183,8.76e-05,478000,35.1,30,~9.72,~11.6,–,–,–,–,–
B2,0.505,–,2.11,0.156,–,–,–,–,–,–,–,–,–,34,~9.96,8.56,0.629,0.000422,670000,0.243,Kd [13]: < 0.001 nM; koff [13]: < 1e-07 s⁻¹; kon [13]: 525000 M⁻¹ s⁻¹; koff [15]: 0.000398 s⁻¹; kon [15]: 1.64e+06 M⁻¹ s⁻¹; Kd [16]: 0.335 nM; koff [16]: 0.000296 s⁻¹; kon [16]: 884000 M⁻¹ s⁻¹
B3,–,–,1.71,0.746,–,–,–,–,–,–,–,–,–,28.7,5.74,–,12,0.00086,71900,7.49,Kd [17]: 0.614 nM; koff [17]: 0.00019 s⁻¹; kon [17]: 309000 M⁻¹ s⁻¹; koff [15]: 0.00112 s⁻¹; kon [15]: 150000 M⁻¹ s⁻¹
B4,0.418,0.618,–,–,~4.6,0.116,7.45,0.000487,65400,4.12,0.000787,191000,36.6,–,–,8.09,–,–,–,–,–
